Molecular target: the molecule itself
Experiment: X-ray crystal structure of GmPDH1-NADP+-citrate, 1.69 A
Experimental: Crystals of GmPDH1 M219T/N222D formed in 16% (w/v) PEG 8000, 40 mM potassium phosphate dibasic, and 20% (v/v) glycerol. All crystals were flash-frozen in liquid nitrogen with mother liquor supplemented with 25% glycerol as a cryoprotectant.
The GmPDH1 structure was solved by single-wavelength anomalous dispersion (SAD) phasing. Diffraction data collected at beamline 19ID of the Argonne National Laboratory Advanced Photon Source were indexed, integrated, and scaled using HKL3000⁴⁸. SHELX⁴⁹ was used to determine initial SeMet positions and to estimate initial phases from the peak wavelength data set. SeMet positions and parameters were refined in MLPHARE⁵⁰. Solvent flattening was performed with DM⁵¹, and ARP/wARP⁵² was used to build an initial model. Iterative rounds of manual model building and refinement were performed with COOT⁵³ and PHENIX⁵⁴, respectively. The resulting model was used for molecular replacement into the higher resolution native data set using PHASER⁵⁵. Iterative rounds of manual model building and refinement, which included translation-libration-screen (TLS) models, used COOT and PHENIX, respectively. The native GmPDH1 structure was used for molecular replacement to solve the GmPDH1 N222D and GmPDH1 M219T/N222D structures. Each mutant structure was built and refined using the same method as the wild-type enzyme. […]

B1: Glycine max (soybean) prephenate dehydrogenase GmPDH1, wild type (enzyme)
chain: MSTSSSSQSLKIGIVGFGNFGQFLAKTMIKQGHTLTATSRSDYSELCLQMGIHFFRDVSAFLTADIDVIVLCTSILSLSEVVGSMPLTSLKRPTLFVDVLSVKEHPRELLLRELPEDSDILCTHPMFGPQTAKNGWTDHTFMYDKVRIRDEVICSNFIQIFATEGCKMVQMSCEEHDRAAAKSQFITHTIGRTLGEMDIQSTPIDTKGFETLVKLKETMMRNSFDLYSGLFVYNRFARQELENLEHALHKVKETLMIQRTNGEQGHKRTES
notes: also called Gm18g02650; 18g02650; not shown: N-terminal 6x-His tag from the pET28a vector
  binding result: binds
